This data set concerns the molecule itself. As to the kind of experiment: cryo-EM structure; single-particle cryo-EM of purified ClC-1 in amphipol PMAL-C8; 20 mM Tris pH 7.5, 100 mM NaCl, 0.2 mM TCEP, no nucleotides or antibodies; also 20 mM BisTris pH 6.2 with 0.3 mM NAD; C2 symmetry applied.

B1: human ClC-1 chloride channel (natural protein, UniProt P35523 1-988, looked up)
chain: MEQSRSQQRGGEQSWWGSDPQYQYMPFEHCTSYGLPSENGGLQHRLRKDAGPRHNVHPTQIYGHHKEQFSDREQDIGMPKKTGSSSTVDSKDEDHYSKCQDCIHRLGQVVRRKLGEDGIFLVLLGLLMALVSWSMDYVSAKSLQAYKWSYAQMQPSLPLQFLVWVTFPLVLILFSALFCHLISPQAVGSGIPEMKTILRGVVLKEYLTMKAFVAKVVALTAGLGSGIPVGKEGPFVHIASICAAVLSKFMSVFCGVYEQPYYYSDILTVGCAVGVGCCFGTPLGGVLFSIEVTSTYFAVRNYWRGFFAATFSAFVFRVLAVWNKDAVTITALFRTNFRMDFPFDLKELPAFAAIGICCGLLGAVFVYLHRQVMLGVRKHKALSQFLAKHRLLYPGIVTFVIASFTFPPGMGQFMAGELMPREAISTLFDNNTWVKHAGDPESLGQSAVWIHPRVNVVIIIFLFFVMKFWMSIVATTMPIPCGGFMPVFVLGAAFGRLVGEIMAMLFPDGILFDDIIYKILPGGYAVIGAAALTGAVSHTVSTAVICFELTGQIAHILPMMVAVILANMVAQSLQPSLYDSIIQVKKLPYLPDLGWNQLSKYTIFVEDIMVRDVKFVSASYTYGELRTLLQTTTVKTLPLVDSKDSMILLGSVERSELQALLQRHLCPERRLRAAQEMARKLSELPYDGKARLAGEGLPGAPPGRPESFAFVDEDEDEDLSGKSELPPSLALHPSTTAPLSPEEPNGPLPGHKQQPEAPEPAGQRPSIFQSLLHCLLGRARPTKKKTTQDSTDLVDNMSPEEIEAWEQEQLSQPVCFDSCCIDQSPFQLVEQTTLHKTHTLFSLLGLHLAYVTSMGKLRGVLALEELQKAIEGHTKSGVQLRPPLASFRNTTSTRKSTGAPPSSAENWNLPEDRPGATGTGDVIAASPETPVPSPSPEPPLSLAPGKVEGELEELELVESPGLEEELADILQGPSLRSTDEEDEDELIL
notes: human ClC-1 chloride channel, full length, from yeast codon-optimized cDNA; followed by a TEV cleavage site, GFP and His10; released from the Ni-beads by TEV protease; The models cover only part of the chain: membrane domain residues 115-589 (loop 254-261 missing) and trimmed CBS domains; The N terminus and helix A are not resolved; source: yeast strain PAP1500 (pEMBLyex4), 15-L bioreactors; …
Consider B1, for which the binding result is “binds”.

The record behind these values is publication PMC6483157, “Structure of the human ClC-1 chloride channel” (PLoS Biology, 2019).
